Experimental data: PMC8402574

Biological target: NG19 (Non-Glycosylated protein of 19 kDa, S371 to F541 of the SARS-CoV-2 Spike protein RBD) (SARS-CoV-2) (UniProt P0DTC2)
Test: Tricine-SDS-PAGE under non-reducing conditions

NG19 (Non-Glycosylated protein of 19 kDa, S371 to F541 of the SARS-CoV-2 Spike protein RBD) (from UniProt P0DTC2 371-541) (domain or fragment)
stoichiometry N: 2
